We go through one molecule from article PMC9877012.

The target in assay [1] is Poly-L-lysine hydrobromide (MW, 70,000-150,000 Da). The assay can be described thus: co-sedimentation; precipitation rate of LOX: LOX mixed with PLL, centrifuged at 18,000 x g for 20 min at 25 °C, LOX in the supernatant by absorbance at 280 nm; 5 µM LOX, 1 mM PLL, 5-20 mM (NH4)2SO4.
Assay [2] shares this target.

B1: L-lactate oxidase (enzyme)
chain: MNNNDIEYNAPSEIKYIDVVNTYDLEEEASKVVPHGGFNYIAGASGDEWTKRANDRAWKHKLLYPRLAQDVEAPDTSTEILGHKIKAPFIMAPIAAHGLAHTTKEAGTARAVSEFGTIMSISAYSGATFEEISEGLNGGPRWFQIYMAKDDQQNRDILDEAKSDGATAIILTADSTVSGNRDRDVKNKFVYPFGMPIVQRYLRGTAEGMSLNNIYGASKQKISPRDIEEIAGHSGLPVFVKGIQHPEDADMAIKRGASGIWVSNHGARQLYEAPGSFDTLPAIAERVNKRVPIVFDSGVRRGEHVAKALASGADVVALGRPVLFGLALGGWQGAYSVLDYFQKDLTRVMQLTGSQNVEDLKGLDLFDNPYGYEY
B1: the percent of LOX in the droplets in assay [1] turned out to be 90%. This molecule came in with a relative enzyme activity of LOX (0.1 µM) with 0.02 mM PLL against LOX without PLL, 0-10 mM (NH4)2SO4 (about 15 times without and about five times with 10 mM ammonium sulfate) in assay [2] of 15 fold.
